Source: publication PMC11938259, “Heme delivery into soluble guanylyl cyclase requires a heme redox change and is regulated by NO and Hsp90 by distinct mechanisms” (The Journal of Biological Chemistry, 2025)

Molecular target: FlAsH-labeled TC-apo-sGCβ (rat sGCβ(1–385) with a TC motif) (rat, UniProt P20595 1-385, TC motif (CCPGCC) inserted at residue 239 to 244, FlAsH dye bound to the tetra-Cys (TC) motif; heme-free (apo))
Assay: cell-based or functional assay

Sequence of FlAsH-labeled TC-apo-sGCβ (rat sGCβ(1–385) with a TC motif) (P20595 other isoform, or with tags, fused parts or gaps TC motif (CCPGCC) inserted at residue 239 to 244): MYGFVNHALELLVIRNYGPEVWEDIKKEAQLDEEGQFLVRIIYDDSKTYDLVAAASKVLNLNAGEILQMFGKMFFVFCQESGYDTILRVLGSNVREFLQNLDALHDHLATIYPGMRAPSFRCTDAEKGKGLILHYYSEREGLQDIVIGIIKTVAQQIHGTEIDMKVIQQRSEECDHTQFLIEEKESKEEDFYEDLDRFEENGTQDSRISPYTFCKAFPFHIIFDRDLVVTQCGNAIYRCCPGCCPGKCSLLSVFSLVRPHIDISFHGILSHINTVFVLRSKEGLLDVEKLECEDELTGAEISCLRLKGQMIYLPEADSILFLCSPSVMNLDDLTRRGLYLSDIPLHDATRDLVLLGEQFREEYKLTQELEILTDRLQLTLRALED

heme transfer (FlAsH fluorescence kinetics) from the GAPDH–heme complex to a preformed complex of GAPDH bound on FlAsH-TC-apo-sGCβ, against FlAsH-TC-apo-sGCβ alone (Fig. S4): 5 fold slower
B1: glyceraldehyde 3-phosphate dehydrogenase (GAPDH), human (enzyme)
chain: not shown
